Results on two compounds are retold here after patent US9079867B2, “Polyazamacrocyclic compound, and a production method and a biomedical use therefor” (KYUNGPOOK NATIONAL UNIVERSITY INDUSTRY-ACADEMIC COOPERATION …, priority 2010, dated 2015).

Data set [1] in a line: Cyclic voltammetry (electrochemical experiment). The conditions noted are these: irreversible (irrev); 2 mM, 100 mV/s, 0.1 M sodium acetate pH 7.0, glassy carbon electrode. In kind it is physicochemical. Here is the method:
Cyclic voltammetry was carried out by using biological model SP-150 having a 3-electrode structure. The working electrode was made of glassy carbon (diameter=3 mm), the reference electrode Ag/AgCl (saturated KCl), and the counter electrode Pt wire. A sample (2 mM) of compound (30) was operated at a scanning speed of 100 mV/s in a 0.1 M aqueous sodium acetate solution adjusted to pH 7.0 with glacial acetic acid. From the solution, oxygen was removed by bubbling Ar for 30 minutes. During the measurement, the system was maintained under Ar atmosphere.

Data set [2] in a line: in vivo. Also on record: species or system female nude mice. The settings on record: female, nude, mouse, iv, 10 uCi, total radioactivity. How it is done: Compound ^64Cu-TE2A-c(RGDyK) (38) (10 μCi) in PBS (120 μl) was injected to the tails of female nude mice to which U87MG tumor had been transplanted. Two groups were examined at two time points [n=4 per group at 1 hr and 4 hr post injection (pi)]. The subject animals were sacrificed, and the relevant tissues and organs were removed and weighed. A dosimetric procedure was carried out by using a gamma-counter. The calculations were performed by comparing with a reference value of which the percentage of injected amount per gram was known.

Structures are written as SMILES.

Regarding `O=C([O-])CN1CCCNCCN(CC(=O)[O-])CCCNCC1.[Cu+2]` [Cu-TE2A], the “Ered (V) for Ag/AgCl” value in data set [1] is given as −1.05 (irrev) V.
For the compound `N=C(N)NCCC[C@@H]1NC(=O)[C@H](CCCCNC(=S)Nc2ccc(CCN3CCCN(CC(=O)O)CCNCCCN(CC(=O)O)CC3)cc2)NC(=O)[C@@H](Cc2ccc(O)cc2)NC(=O)[C@H](CC(=O)O)NC(=O)CNC1=O` [^64Cu-TE2A-c(RGDyK), metal not drawn], the tissue uptake at 1 h in data set [2] (% ID/g Blood) stood at 0.55 ± 0.18 %ID/g; in data set [2] (% ID/g Bone) it was 0.66 ± 0.23 %ID/g; in data set [2] (% ID/g Fat), 1.28 ± 0.55 %ID/g; in data set [2] (% ID/g Intestine), 2.14 ± 0.53 %ID/g; in data set [2] (% ID/g Kidney), 3.47 ± 0.61 %ID/g; in data set [2] (% ID/g Liver), 5.45 ± 1.14 %ID/g. For the same compound, the tissue uptake at 1 h is 1.46 ± 0.34 %ID/g in data set [2] (% ID/g Lung); 0.49 ± 0.3 %ID/g in data set [2] (% ID/g Muscle); 1.17 ± 0.46 %ID/g in data set [2] (% ID/g Spleen); 1.78 ± 0.55 %ID/g in data set [2] (% ID/g Stomach); 2.98 ± 0.39 %ID/g in data set [2] (% ID/g Tumor 1); 3.49 ± 1.67 %ID/g in data set [2] (% ID/g Tumor 2). Also, the tissue uptake at 4 h came to 0.43 ± 0.09 %ID/g in data set [2] (% ID/g Blood); 0.41 ± 0.06 %ID/g in data set [2] (% ID/g Bone); 1.15 ± 1.08 %ID/g in data set [2] (% ID/g Fat); 2.17 ± 0.62 %ID/g in data set [2] (% ID/g Intestine); 2.71 ± 0.45 %ID/g in data set [2] (% ID/g Kidney); 4.45 ± 0.65 %ID/g in data set [2] (% ID/g Liver). Moreover, the tissue uptake at 4 h in data set [2] (% ID/g Lung) was 1.14 ± 0.17 %ID/g; in data set [2] (% ID/g Muscle), 0.24 ± 0.11 %ID/g; in data set [2] (% ID/g Spleen), 1.04 ± 0.46 %ID/g; in data set [2] (% ID/g Stomach), 1.03 ± 0.39 %ID/g; in data set [2] (% ID/g Tumor 1), 3.01 ± 1 %ID/g; in data set [2] (% ID/g Tumor 2) it was 3.32 ± 0.49 %ID/g.
